{"source": "paper PMC5698806", "about": "(Molecular cell, 2017)", "binders": {"B1": {"name": "Biotin-SUMO-tagged Rap1^446-512 (domain or fragment, S. pombe, UniProt Q96TL7 446-512, looked up)", "chain": "EKTLRETSFRSLDDMSLRKSNSDNIFVKPGEDLEIPLLSDYSDSENISEKSSDDEEAFEKQVTSSYS", "modifications": "also: SUMO tag fused, biotin on Avi tag"}, "B2": {"name": "Poz1 (full length) (natural protein, S. pombe, UniProt O13852 1-249, looked up)", "chain": "MNEKIRSQSVLNTLETFFIKENHYDMQREESSIVNACLRYLGYSKSMCHEKMPIFMDIAFIEYCFNLSLDPSSFQNLPITQTQPDSQQILWEYSLISNALERLENIELERQNCMREDGLVKYTNELLLNKETLNNEALKLYSCAKAGICRWMAFHFLEQEPIDHINFTKFLQDWGSHNEKEMEALQRLSKHKIRKRLIYVSQHKKKMPWSKFNSVLSRYIQCTKLQLEVFCDYDFKQREIVKMLTSNIN"}, "B3": {"name": "Tpz1^475–508-Poz1 complex (complex, S. pombe)", "chain 1": "NSEACEMCRLGLPHGSFFELLRDWKKIEEFRNKS", "chain 2": "MNEKIRSQSVLNTLETFFIKENHYDMQREESSIVNACLRYLGYSKSMCHEKMPIFMDIAFIEYCFNLSLDPSSFQNLPITQTQPDSQQILWEYSLISNALERLENIELERQNCMREDGLVKYTNELLLNKETLNNEALKLYSCAKAGICRWMAFHFLEQEPIDHINFTKFLQDWGSHNEKEMEALQRLSKHKIRKRLIYVSQHKKKMPWSKFNSVLSRYIQCTKLQLEVFCDYDFKQREIVKMLTSNIN"}}, "key": {"[1]": {"target": "T1, Tpz1 (full length, in S. pombe) (S. pombe, UniProt O14246 1-508)", "T1 sequence (looked up)": "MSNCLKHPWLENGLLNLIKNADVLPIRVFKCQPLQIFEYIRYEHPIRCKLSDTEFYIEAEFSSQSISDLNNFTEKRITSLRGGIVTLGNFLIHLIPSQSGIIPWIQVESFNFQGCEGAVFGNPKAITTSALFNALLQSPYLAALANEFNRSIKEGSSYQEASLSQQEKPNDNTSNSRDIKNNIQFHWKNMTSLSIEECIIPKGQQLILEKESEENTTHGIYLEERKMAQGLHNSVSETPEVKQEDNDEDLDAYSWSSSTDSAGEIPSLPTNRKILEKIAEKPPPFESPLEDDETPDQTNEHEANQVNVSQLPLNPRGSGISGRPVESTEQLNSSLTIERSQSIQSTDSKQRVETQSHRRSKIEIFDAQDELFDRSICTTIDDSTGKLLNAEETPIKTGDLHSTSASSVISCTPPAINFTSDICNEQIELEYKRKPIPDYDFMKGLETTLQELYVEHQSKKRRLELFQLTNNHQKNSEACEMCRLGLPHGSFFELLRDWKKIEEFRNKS", "assay": "co-IP"}, "[2]": {"target": "B2", "assay": "pull-down"}, "[3]": {"target": "B3", "assay": "pull-down"}, "[4]": {"target": "T2, Poz1ΔN (Poz1^29-249) (S. pombe, UniProt O13852 29-249)", "T2 sequence (looked up)": "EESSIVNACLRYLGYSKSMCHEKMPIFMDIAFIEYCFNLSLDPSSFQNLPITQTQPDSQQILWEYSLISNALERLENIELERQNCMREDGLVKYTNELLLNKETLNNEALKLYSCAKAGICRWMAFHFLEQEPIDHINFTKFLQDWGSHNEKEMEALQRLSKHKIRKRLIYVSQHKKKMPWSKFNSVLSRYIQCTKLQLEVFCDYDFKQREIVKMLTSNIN", "assay": "BLI"}, "[5]": {"target": "T3, Poz1^L14R-Tpz1^475–508 (S. pombe, UniProt O14246 475-508; O13852 1-249, L14R)", "T3 sequence (looked up) 1": "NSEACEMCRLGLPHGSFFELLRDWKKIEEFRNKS", "T3 sequence (looked up) 2": "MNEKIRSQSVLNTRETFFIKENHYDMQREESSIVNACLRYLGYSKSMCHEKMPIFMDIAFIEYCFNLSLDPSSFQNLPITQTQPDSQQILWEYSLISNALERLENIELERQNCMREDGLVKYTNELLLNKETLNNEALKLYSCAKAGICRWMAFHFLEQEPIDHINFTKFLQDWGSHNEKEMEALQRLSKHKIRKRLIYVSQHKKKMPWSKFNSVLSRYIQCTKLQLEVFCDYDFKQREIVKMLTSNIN", "assay": "BLI"}, "[6]": {"target": "B1", "assay": "BLI"}, "[7]": {"target": "B2", "assay": "crystal structure"}, "[8]": {"target": "B2", "assay": "ITC"}, "[9]": {"target": "T4, Tpz1-Poz1ΔN complex (S. pombe, UniProt O14246 475-508; O13852 29-249)", "T4 sequence (looked up) 1": "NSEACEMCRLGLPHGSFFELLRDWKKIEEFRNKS", "T4 sequence (looked up) 2": "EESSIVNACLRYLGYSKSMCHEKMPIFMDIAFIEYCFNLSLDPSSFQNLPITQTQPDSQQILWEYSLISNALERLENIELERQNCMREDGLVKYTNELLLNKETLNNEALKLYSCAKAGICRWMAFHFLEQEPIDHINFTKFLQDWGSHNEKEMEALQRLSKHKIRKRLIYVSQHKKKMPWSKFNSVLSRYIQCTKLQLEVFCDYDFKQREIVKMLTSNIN", "assay": "ITC"}, "[10]": {"target": "B3", "assay": "ITC"}, "[11]": {"target": "T5, Rap1^467–496 (S. pombe, UniProt Q96TL7 467-496)", "T5 chain (looked up)": "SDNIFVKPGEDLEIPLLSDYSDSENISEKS", "assay": "crystal structure"}, "[12]": {"target": "T6, TIN2 (human, UniProt Q9BSI4 1-451)", "T6 sequence (looked up)": "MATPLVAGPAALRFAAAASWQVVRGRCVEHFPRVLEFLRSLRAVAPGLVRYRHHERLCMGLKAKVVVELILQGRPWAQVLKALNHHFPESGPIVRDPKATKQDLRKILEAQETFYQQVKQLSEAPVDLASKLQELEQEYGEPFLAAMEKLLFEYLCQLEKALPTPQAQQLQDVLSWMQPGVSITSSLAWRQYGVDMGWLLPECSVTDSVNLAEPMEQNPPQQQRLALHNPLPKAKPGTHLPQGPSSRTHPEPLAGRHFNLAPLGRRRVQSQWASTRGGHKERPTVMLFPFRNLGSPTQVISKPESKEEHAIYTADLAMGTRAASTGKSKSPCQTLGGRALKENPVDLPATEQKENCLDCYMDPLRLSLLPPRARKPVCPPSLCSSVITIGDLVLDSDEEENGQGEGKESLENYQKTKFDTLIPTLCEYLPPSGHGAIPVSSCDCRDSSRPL", "assay": "ITC"}}, "note": "“And” between values parts separate entries of the source, which are not always exact repeats. Equal values may be shown once."}
{"binder": "Poz1ΔN (in S. pombe) (domain or fragment, UniProt O13852 29-249, looked up) EESSIVNACLRYLGYSKSMCHEKMPIFMDIAFIEYCFNLSLDPSSFQNLPITQTQPDSQQILWEYSLISNALERLENIELERQNCMREDGLVKYTNELLLNKETLNNEALKLYSCAKAGICRWMAFHFLEQEPIDHINFTKFLQDWGSHNEKEMEALQRLSKHKIRKRLIYVSQHKKKMPWSKFNSVLSRYIQCTKLQLEVFCDYDFKQREIVKMLTSNIN", "values": [{"measurement": "fold decrease of the co-IP against wild-type cells", "setting": "[1]", "result": "~3", "unit": "fold"}]}
{"binder": "GST-Rap1^446-512 (domain or fragment, S. pombe, UniProt Q96TL7 446-512, looked up) EKTLRETSFRSLDDMSLRKSNSDNIFVKPGEDLEIPLLSDYSDSENISEKSSDDEEAFEKQVTSSYS", "values": [{"measurement": "binding result", "setting": "[2]", "result": "binds"}, {"measurement": "binding result", "setting": "[3]", "result": "binds"}]}
{"binder": "B1", "values": [{"measurement": "binding result", "setting": "[4]", "result": "binds"}, {"measurement": "binding result", "setting": "[5]", "result": "binds"}]}
{"binder": "B2", "values": [{"measurement": "kon, fold against Tpz1-bound Poz1", "setting": "[6]", "result": "~5", "unit": "fold"}]}
{"binder": "IFVKPGEDLEIPLLSDYSDSENISE (domain or fragment, S. pombe, UniProt Q96TL7 470-494, looked up)", "note": "[Rap1^470-494]", "values": [{"measurement": "binding result", "setting": "[7]", "result": "binds"}]}
{"binder": "Rap1^446-523 (domain or fragment, S. pombe, UniProt Q96TL7 446-523, looked up) EKTLRETSFRSLDDMSLRKSNSDNIFVKPGEDLEIPLLSDYSDSENISEKSSDDEEAFEKQVTSSYSSPIKVKSQGKS", "values": [{"measurement": "Kd", "setting": "[8]", "result": "5.62 µM and 4.95 µM"}, {"measurement": "Kd", "setting": "[9]", "result": 4.58, "unit": "µM"}, {"measurement": "Kd", "setting": "[10]", "result": 0.48, "unit": "µM"}]}
{"binder": "GST-Tpz1^406-508 (domain or fragment, S. pombe, UniProt O14246 406-508, looked up) SSVISCTPPAINFTSDICNEQIELEYKRKPIPDYDFMKGLETTLQELYVEHQSKKRRLELFQLTNNHQKNSEACEMCRLGLPHGSFFELLRDWKKIEEFRNKS", "values": [{"measurement": "binding result", "setting": "[2]", "result": "binds"}]}
{"binder": "Poz1 of the improved crystal construct Tpz1^475–508-Poz1-Rap1^467–496 (residues 73–86 replaced by GGA, 117–126 by GGGSA) (natural protein, S. pombe) MNEKIRSQSVLNTLETFFIKENHYDMQREESSIVNACLRYLGYSKSMCHEKMPIFMDIAFIEYCFNLSLDPSGGAQQILWEYSLISNALERLENIELERQNCMREGGGSALLNKETLNNEALKLYSCAKAGICRWMAFHFLEQEPIDHINFTKFLQDWGSHNEKEMEALQRLSKHKIRKRLIYVSQHKKKMPWSKFNSVLSRYIQCTKLQLEVFCDYDFKQREIVKMLTSNIN", "values": [{"measurement": "binding result", "setting": "[11]", "result": "binds"}]}
{"binder": "B3", "values": [{"measurement": "koff, fold slower than with free Poz1", "setting": "[6]", "result": "~60", "unit": "fold"}]}
{"binder": "Poz1-L14R (in S. pombe) (natural protein, UniProt O13852 1-249, looked up) MNEKIRSQSVLNTRETFFIKENHYDMQREESSIVNACLRYLGYSKSMCHEKMPIFMDIAFIEYCFNLSLDPSSFQNLPITQTQPDSQQILWEYSLISNALERLENIELERQNCMREDGLVKYTNELLLNKETLNNEALKLYSCAKAGICRWMAFHFLEQEPIDHINFTKFLQDWGSHNEKEMEALQRLSKHKIRKRLIYVSQHKKKMPWSKFNSVLSRYIQCTKLQLEVFCDYDFKQREIVKMLTSNIN", "values": [{"measurement": "fold decrease of the co-IP against wild-type cells", "setting": "[1]", "result": "~3", "unit": "fold"}]}
{"binder": "APADGEGGSELQPKNKRMTISRLVLEEDSQSTEPSAGLNSSQE (domain or fragment, human, UniProt Q15554 382-424, looked up)", "note": "[TRF2^382-424]", "values": [{"measurement": "Kd", "setting": "[12]", "result": 3.11, "unit": "µM"}]}
